Test results published in IntAct's records for PubMed 33368531.

Target: T1, ofd1_human OFD1 (UniProt O75665)
T1 sequence: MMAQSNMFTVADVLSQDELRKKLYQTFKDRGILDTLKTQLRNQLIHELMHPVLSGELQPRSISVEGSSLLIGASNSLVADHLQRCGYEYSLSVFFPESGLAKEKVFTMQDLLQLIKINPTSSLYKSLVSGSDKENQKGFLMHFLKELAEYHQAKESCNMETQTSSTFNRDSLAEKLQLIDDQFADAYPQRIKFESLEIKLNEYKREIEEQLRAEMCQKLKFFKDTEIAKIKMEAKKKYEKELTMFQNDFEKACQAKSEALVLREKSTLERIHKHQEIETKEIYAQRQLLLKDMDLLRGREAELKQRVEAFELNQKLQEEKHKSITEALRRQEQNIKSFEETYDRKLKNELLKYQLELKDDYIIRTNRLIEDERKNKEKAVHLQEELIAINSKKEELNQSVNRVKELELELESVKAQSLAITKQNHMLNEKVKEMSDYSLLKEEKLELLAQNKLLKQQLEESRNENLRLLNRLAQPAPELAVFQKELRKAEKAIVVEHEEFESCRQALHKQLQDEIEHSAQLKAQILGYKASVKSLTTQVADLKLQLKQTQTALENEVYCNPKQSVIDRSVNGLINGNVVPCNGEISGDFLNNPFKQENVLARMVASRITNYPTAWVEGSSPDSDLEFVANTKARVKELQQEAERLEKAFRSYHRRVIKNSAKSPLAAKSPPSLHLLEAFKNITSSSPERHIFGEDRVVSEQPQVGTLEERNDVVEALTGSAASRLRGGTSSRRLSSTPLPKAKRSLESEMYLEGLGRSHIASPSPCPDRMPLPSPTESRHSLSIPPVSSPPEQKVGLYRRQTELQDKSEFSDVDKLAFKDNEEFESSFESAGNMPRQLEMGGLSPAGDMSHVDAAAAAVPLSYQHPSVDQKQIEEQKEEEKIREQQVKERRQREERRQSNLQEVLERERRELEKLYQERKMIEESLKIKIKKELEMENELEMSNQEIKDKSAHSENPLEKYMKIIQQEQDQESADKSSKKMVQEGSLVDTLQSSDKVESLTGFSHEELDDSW

## Microtubule-associated protein 1 light chain 3 beta (Homo sapiens) (from UniProt Q9GZQ8) F52A;L53A
  effect of a mutation on the interaction: disrupting interaction
